Read-outs that look alike come from different tables or passages of the source. Where no end group is shown, it is not given here.
Legend:
[1] = target: T1, TAK1 expressed from yeast 2-hybrid expression vector pBTMHu11F (Homo sapiens (Human), UniProt O43318 1-606); assay: cell-based or functional assay
T1 sequence: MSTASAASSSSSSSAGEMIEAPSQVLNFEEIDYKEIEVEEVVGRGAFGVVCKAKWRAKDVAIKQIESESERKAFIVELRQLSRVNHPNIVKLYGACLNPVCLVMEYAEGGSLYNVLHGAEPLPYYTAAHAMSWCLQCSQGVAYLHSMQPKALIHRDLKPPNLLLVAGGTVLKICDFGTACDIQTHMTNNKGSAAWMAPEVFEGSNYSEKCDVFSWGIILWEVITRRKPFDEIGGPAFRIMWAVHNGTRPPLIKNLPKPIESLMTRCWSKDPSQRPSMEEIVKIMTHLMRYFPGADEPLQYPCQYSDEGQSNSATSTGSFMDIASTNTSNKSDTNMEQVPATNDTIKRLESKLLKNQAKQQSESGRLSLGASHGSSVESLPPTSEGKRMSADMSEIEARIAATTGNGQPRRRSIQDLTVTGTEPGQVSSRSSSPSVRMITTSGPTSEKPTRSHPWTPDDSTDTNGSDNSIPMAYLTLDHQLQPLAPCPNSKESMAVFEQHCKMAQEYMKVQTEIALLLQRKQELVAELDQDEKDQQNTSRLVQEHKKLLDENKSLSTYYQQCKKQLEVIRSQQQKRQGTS

[2] = target: T1, TAK1 expressed from yeast 2-hybrid …; assay: cell-based or functional assay; remark: listed apart in the source
[3] = target: T1, TAK1 expressed from yeast 2-hybrid …; assay: cell-based or functional assay; remark: listed apart in the source
[4] = target: TAB1 polypeptide of mink pulmonary epithelial cell line Mv1Lu (endogenous) (mink); assay: cell-based or functional assay
[5] = target: T2, TAB1 polypeptide of mouse kidney mesangial cell line SV40MES13 (endogenous) (mouse, UniProt Q8CF89 1-502, limits assumed); assay: cell-based or functional assay
T2 sequence (looked up): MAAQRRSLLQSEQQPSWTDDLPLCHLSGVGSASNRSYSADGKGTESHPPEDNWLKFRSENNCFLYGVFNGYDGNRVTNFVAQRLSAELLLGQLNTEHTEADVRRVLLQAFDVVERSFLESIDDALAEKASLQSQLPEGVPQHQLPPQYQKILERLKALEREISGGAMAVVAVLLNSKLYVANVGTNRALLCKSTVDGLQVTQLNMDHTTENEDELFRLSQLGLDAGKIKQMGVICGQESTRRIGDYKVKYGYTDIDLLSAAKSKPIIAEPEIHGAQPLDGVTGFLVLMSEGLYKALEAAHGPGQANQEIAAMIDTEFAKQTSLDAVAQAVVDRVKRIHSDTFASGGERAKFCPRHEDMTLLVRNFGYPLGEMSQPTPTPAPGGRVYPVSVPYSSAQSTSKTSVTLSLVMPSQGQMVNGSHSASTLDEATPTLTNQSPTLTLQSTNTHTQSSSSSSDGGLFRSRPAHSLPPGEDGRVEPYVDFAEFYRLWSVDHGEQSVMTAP

[6] = target: T3, TAB1 polypeptide of human fibroblast-derived HT-1080 cells (endogenous) (human, UniProt Q15750 1-504, limits assumed); assay: cell-based or functional assay
T3 sequence (looked up): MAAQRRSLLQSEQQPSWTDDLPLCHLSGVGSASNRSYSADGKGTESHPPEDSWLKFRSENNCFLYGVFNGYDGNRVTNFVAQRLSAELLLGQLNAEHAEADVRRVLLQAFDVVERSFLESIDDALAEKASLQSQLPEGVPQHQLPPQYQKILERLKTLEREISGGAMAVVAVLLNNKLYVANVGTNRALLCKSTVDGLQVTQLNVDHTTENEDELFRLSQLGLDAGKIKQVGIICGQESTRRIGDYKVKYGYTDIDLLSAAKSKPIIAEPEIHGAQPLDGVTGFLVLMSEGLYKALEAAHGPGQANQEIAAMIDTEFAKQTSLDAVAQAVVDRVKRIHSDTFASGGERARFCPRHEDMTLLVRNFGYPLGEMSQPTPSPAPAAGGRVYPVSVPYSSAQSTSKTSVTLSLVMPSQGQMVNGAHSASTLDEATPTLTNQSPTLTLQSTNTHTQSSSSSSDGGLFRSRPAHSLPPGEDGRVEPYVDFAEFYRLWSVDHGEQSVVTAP

[7] = target: T4, recombinant human TAK1-6×His polypeptide (human, UniProt O43318 1-606); assay: competition ELISA on plate-immobilised TAK1-6×His; the blocked ligand is MBP-TAB1C-FLAG at a fixed amount
T4 construct: also called human TAK1-6xHis; recombinant TAK1 polypeptide
T4 sequence: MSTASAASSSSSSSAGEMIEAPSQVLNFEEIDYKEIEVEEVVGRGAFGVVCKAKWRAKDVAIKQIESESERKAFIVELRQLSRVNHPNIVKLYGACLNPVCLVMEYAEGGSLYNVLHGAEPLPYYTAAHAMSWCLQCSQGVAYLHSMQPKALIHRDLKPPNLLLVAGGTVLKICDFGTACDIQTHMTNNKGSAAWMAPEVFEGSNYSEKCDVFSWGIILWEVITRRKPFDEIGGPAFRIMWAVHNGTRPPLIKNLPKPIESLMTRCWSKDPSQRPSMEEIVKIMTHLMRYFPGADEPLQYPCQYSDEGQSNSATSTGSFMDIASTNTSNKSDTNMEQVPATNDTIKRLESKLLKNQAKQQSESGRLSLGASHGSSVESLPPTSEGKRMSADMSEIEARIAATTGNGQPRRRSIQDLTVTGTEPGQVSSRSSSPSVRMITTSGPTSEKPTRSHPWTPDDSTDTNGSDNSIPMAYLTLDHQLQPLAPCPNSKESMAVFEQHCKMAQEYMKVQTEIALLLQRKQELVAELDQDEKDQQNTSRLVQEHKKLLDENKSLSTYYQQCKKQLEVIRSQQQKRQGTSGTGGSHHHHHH
Excerpt: In a similar manner to that in the above 5-1 (2), the recombinant human TAK1-6×His polypeptide was immobilized and was blocked.

B1: TAB1C25, fusion with the GAL4 transcription activated domain (pGAD-TAB1C25) (other, not shown: large carriers)
chain: PYVDFAEFYRLWSVDHGEQSVVTAP
modifications: also: fusion with GAL4 transcription activation domain
β-galactosidase activity of yeast L40 (yeast 2-hybrid), ratio based on TAB1C68 [1]: 0.28 ratio to TAB1C68

B2: TAB1C68, fusion with the GAL4 transcription activated domain (pGAD-TAB1) (other, not shown: large carriers)
chain: QSPTLTLQSTNTHTQSSSSSSDGGLFRSRPAHSLPPGEDGRVEPYVDFAEFYRLWSVDHGEQSVVTAP
ratio of the β-galactosidase activity to that of TAB1C68 (yeast 2-hybrid) [2]: 1 | ratio of the β-galactosidase activity to that of TAB1C68 (yeast 2-hybrid) [3]: 1

B3: TAK1-DN (expressed from pTAK1DN) (other)
chain: MELRQLSRVNHPNIVKLYGACLNPVCLVMEYAEGGSLYNVLHGAEPLPYYTAAHAMSWCLQCSQGVAYLHSMQPKALIHRDLKPPNLLLVAGGTVLKICDFGTACDIQTHMTNNKGSAAWMAPEVFEGSNYSEKCDVFSWGIILWEVITRRKPFDEIGGPAFRIMWAVHNGTRPPLIKNLPKPIESLMTRCWSKDPSQRPSMEEIVKIMTHLMRYFPGADEPLQYPCQ
fold increase of PAI-1 in the culture supernatant on TGF-β1 addition, Mv/DN2 cells (control cells about 16-fold) [4]: ~4.3 fold | fold increase of fibronectin in the culture supernatant on TGF-β addition, MES/DN3 cells (control MES/NEO about 3.3 fold) [5]: ~2.4 fold | fold increase of fibronectin in the culture supernatant on TGF-β addition, MES/DN6 cells (control MES/NEO about 3.3 fold) [5]: ~2.3 fold | fold increase of fibronectin in the extracellular matrix extract on TGF-β addition, MES/DN3 cells (control MES/NEO about 3.8 fold) [5]: ~2.6 fold | fold increase of fibronectin in the extracellular matrix extract on TGF-β addition, MES/DN6 cells (control MES/NEO about 3.8 fold) [5]: ~2.1 fold | fold increase of type I collagen in the culture supernatant on TGF-β addition, MES/DN3 cells (control MES/NEO about 3.6 fold) [5]: ~2 fold | fold increase of type I collagen in the culture supernatant on TGF-β addition, MES/DN6 cells (control MES/NEO about 3.6 fold) [5]: ~2 fold | fold increase of type IV collagen in the culture supernatant on TGF-β addition, MES/DN3 cells (control MES/NEO about 2.0 fold) [5]: ~1.5 fold | fold increase of type IV collagen in the culture supernatant on TGF-β addition, MES/DN6 cells (control MES/NEO about 2.0 fold) [5]: ~1.4 fold | fold increase of fibronectin in the culture supernatant on TGF-β addition, HT/DN2 cells (control HT/NEO about 6.1 fold) [6]: ~2.6 fold | fold increase of fibronectin in the culture supernatant on TGF-β addition, HT/DN14 cells (control HT/NEO about 6.1 fold) [6]: ~3 fold | fold increase of fibronectin in the extracellular matrix extract on TGF-β addition, HT/DN2 cells (control HT/NEO about 11.4 fold) [6]: ~3.5 fold | fold increase of fibronectin in the extracellular matrix extract on TGF-β addition, HT/DN14 cells (control HT/NEO about 11.4 fold) [6]: ~3.6 fold

B4: TAB1C45, fusion with the GAL4 transcription activated domain (pGAD-TAB1C45) (other, not shown: large carriers)
chain: GLFRSRPAHSLPPGEDGRVEPYVDFAEFYRLWSVDHGEQSVVTAP
modifications: also: fusion with GAL4 transcription activation domain
ratio of the β-galactosidase activity to that of TAB1C68 (yeast 2-hybrid) [2]: 1.31 | ratio of the β-galactosidase activity to that of TAB1C68 (yeast 2-hybrid) [3]: 1.19

B5: recombinant human TAB1-FLAG polypeptide (other)
chain: MAAQRRSLLQSEQQPSWTDDLPLCHLSGVGSASNRSYSADGKGTESHPPEDSWLKFRSENNCFLYGVFNGYDGNRVTNFVAQRLSAELLLGQLNAEHAEADVRRVLLQAFDVVERSFLESIDDALAEKASLQSQLPEGVPQHQLPPQYQKILERLKTLEREISGGAMAVVAVLLNNKLYVANVGTNRALLCKSTVDGLQVTQLNVDHTTENEDELFRLSQLGLDAGKIKQVGIICGQESTRRIGDYKVKYGYTDIDLLSAAKSKPIIAEPEIHGAQPLDGVTGFLVLMSEGLYKALEAAHGPGQANQEIAAMIDTEFAKQTSLDAVAQAVVDRVKRIHSDTFASGGERARFCPRHEDMTLLVRNFGYPLGEMSQPTPSPAPAAGGRVYPVSVPYSSAQSTSKTSVTLSLVMPSQGQMVNGAHSASTLDEATPTLTNQSPTLTLQSTNTHTQSSSSSSDGGLFRSRPAHSLPPGEDGRVEPYVDFAEFYRLWSVDHGEQSVVTAPGTGGSDYKDDDDK
notes: Made in Sf9 cells with baculovirus and purified on anti-FLAG M2 gel
IC50 (read off the curve) [7]: ~1 µg/well

From patent US20030162228A1 (Chugai, published 2003)
